# Measured values from patent publication US20080299072A1 (LABORATOIRES SERONO, published 2008).
# T1: CCR1 (UniProt P32246 1-355, limits assumed)
# T1 construct: whole, on cells; Membrane preparation of CHO transfectants; also called CCR1-expressing CHO membranes
# T1 sequence (looked up): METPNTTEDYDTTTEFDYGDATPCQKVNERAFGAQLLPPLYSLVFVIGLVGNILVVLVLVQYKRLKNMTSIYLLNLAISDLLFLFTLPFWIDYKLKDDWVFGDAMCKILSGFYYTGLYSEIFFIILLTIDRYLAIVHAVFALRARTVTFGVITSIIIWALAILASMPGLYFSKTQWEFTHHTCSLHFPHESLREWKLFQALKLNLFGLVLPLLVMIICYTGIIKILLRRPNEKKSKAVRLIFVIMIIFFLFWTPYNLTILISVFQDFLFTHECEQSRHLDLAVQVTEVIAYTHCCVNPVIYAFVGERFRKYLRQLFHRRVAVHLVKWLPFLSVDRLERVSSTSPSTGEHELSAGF
# B1: PEG-5 kDa-RANTES (ligand)
# chain: {mPEG‑ButyrALD 5 kDa}-SPYSSDTTPCCFAYIARPLPRAHIKEYFYTSGKCSNPAVVFVTRKNRQVCANPEKKWVREYINSLEMS
# notes: also called N-terminal PEGylated wt RANTES (5 kDa)
# B2: Met-RANTES (ligand)
# chain: MSPYSSDTTPCCFAYIARPLPRAHIKEYFYTSGKCSNPAVVFVTRKNRQVCANPEKKWVREYINSLEMS
# notes: The build (Met + mature RANTES) comes from the background description and the name
# B3: Mature wildtype (wt) human RANTES (ligand)
# chain: SPYSSDTTPCCFAYIARPLPRAHIKEYFYTSGKCSNPAVVFVTRKNRQVCANPEKKWVREYINSLEMS
# notes: The mature form was used; also called WT RANTES; CCL5
# B4: S4C-5 kDaPEG-RANTES (ligand)
# chain: SPYC(mPEG‑MAL 5 kDa)SDTTPCCFAYIARPLPRAHIKEYFYTSGKCSNPAVVFVTRKNRQVCANPEKKWVREYINSLEMS
# notes: This is probably a printing error; also called S4C-5 kDa-RANTES
# B5: S1C-5 kDaPEG-RANTES (ligand)
# chain: C(mPEG‑MAL 5 kDa)PYSSDTTPCCFAYIARPLPRAHIKEYFYTSGKCSNPAVVFVTRKNRQVCANPEKKWVREYINSLEMS
# notes: Expressed without a leader; also called S1C-5 kDa-RANTES
# B6: PEG-2 kDa-RANTES (ligand)
# chain: {mPEG‑ButyrALD 2 kDa}-SPYSSDTTPCCFAYIARPLPRAHIKEYFYTSGKCSNPAVVFVTRKNRQVCANPEKKWVREYINSLEMS
# notes: also called N-terminal PEGylated wt RANTES (2 kDa)
# B7: S5C-5 kDaPEG-RANTES (ligand)
# chain: SPYSC(mPEG‑MAL 5 kDa)DTTPCCFAYIARPLPRAHIKEYFYTSGKCSNPAVVFVTRKNRQVCANPEKKWVREYINSLEMS
# notes: also called S5C-5 kDa-RANTES
# Target: T1, CCR1
# Assay: competition SPA, displacement of 125I-MIP-1α from CCR1 CHO membranes
# Description: (§1) The assay was carried out on membranes isolated from CHO transfectants expressing CCR1 and CCR5 from Invitrogen® using a scintillation proximity assay (Alouani, 2000). The unlabelled chemokines were prepared in triplicate by serial dilution in the range of 10⁻⁶ to 10⁻¹² M in 50 mM HEPES pH 7.5, containing 1 mM CaCl₂, 5 mM MgCl₂ and 0.5% bovine serum albumin (binding buffer). Wheatgerm scintillation proximity assay beads (Amersham®) were solubilized at 50 mg/ml in PBS, diluted to 10 mg/ml in binding buffer and put at 250 μg/well. Membranes were diluted to 80 μg/ml in binding buffer and put at 2 μg/well in the assay plates. ¹²⁵I-MIP-1α (Amersham®) was put at 0.1 nM/well and finally unlabelled chemokine was added into the plate. The plates were incubated for 3 h at room temperature with agitation and radioactivity was read with a Wallac counter.
row,IC50 [nM],Binder
1,50,B1
2,73,B2
3,23.3,B3
4,84,B4
5,167,B5
6,43,B6

# Target: T2, CCR5 (UniProt P51681 1-352, limits assumed)
# T2 construct: whole, on cells; L1.2/CCR5 cells for chemotaxis; also called CCR5-expressing CHO membranes; L1.2/CCR5 transfectants
# Assay: competition SPA, displacement of 125I-MIP-1α from CCR5 CHO membranes
# Description: as §1
# T2 sequence (P51681 whole entry): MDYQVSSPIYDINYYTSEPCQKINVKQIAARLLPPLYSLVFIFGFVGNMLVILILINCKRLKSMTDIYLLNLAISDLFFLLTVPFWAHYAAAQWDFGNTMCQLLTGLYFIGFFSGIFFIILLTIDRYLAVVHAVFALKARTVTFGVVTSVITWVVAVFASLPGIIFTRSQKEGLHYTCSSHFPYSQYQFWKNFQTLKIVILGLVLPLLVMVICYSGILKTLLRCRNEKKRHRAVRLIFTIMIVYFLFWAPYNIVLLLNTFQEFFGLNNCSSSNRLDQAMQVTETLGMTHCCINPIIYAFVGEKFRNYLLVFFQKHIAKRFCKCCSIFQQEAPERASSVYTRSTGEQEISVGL
row,IC50 [nM],Binder
1,15.2,B2
2,40,B4
3,41,B5
4,902,B7

# Target: T1, CCR1
# Assay: competition SPA, displacement of 125I-MIP-1α from CCR1 CHO membranes (FIG. 1)
# Description: FIG. 1: Equilibrium competition binding to CCR1. The binding assay was performed by monitoring the displacement of [¹²⁵I]-MIP-1α from CCR1-expressing CHO membranes. A) PEGylated Ser/Cys variants (S1C, S4C). Added as competitors were: RANTES (□), Met-RANTES (X), S1C-5 kDaPEG-RANTES (▪), S4C-5 kDaPEG-RANTES. B) N-terminal PEGylated wt RANTES variants. Added as competitors were: RANTES (□), Met-RANTES (X), PEG-2 kDa-RANTES (▴), PEG-5 kDa-RANTES (▾).
# as §1
row,IC50 [nM],Binder
1,47,B1
2,72,B2
3,69,B3
4,83,B4
5,272,B5
6,41,B6

# Target: T2, CCR5
# Assay: competition SPA, displacement of 125I-MIP-1α from CCR5 CHO membranes (FIG. 2)
# Description: FIG. 2: Equilibrium competition binding to CCR5. The binding assay was performed by monitoring the displacement of [¹²⁵I]-MIP-1α from CCR5-expressing CHO membranes. A) PEGylated Ser/Cys variants. Added as competitors were: RANTES (□), Met-RANTES (x), S1C-5 kDaPEG-RANTES (▪), S4C-5 kDaPEG-RANTES, S5C-5 kDaPEG-RANTES (□). B) N-terminal PEGylated wt RANTES variants. Added as competitors were RANTES (□), Met-RANTES (x), PEG-2 kDa-RANTES (▴), PEG-5 kDa-RANTES (▾).
# as §1
row,IC50 [nM],Binder
1,15.5,B2
2,45.4,B4
3,82.5,B5
